Common to all, as to experiment: ELISA
Background: In an ELISA, binding on a coated surface is turned into a signal by an enzyme label.

Experiment [1] concerns the target T1, variable region of RIFIN#1 (PF3D7_1254800, 165-274 aa) (P. falciparum, UniProt Q8I4N9).
The target of experiment [2] is T1, variable region of RIFIN#1 …. The source holds these as a separate data set.
The target in experiment [3] is extracellular domain (ECD) of human LILRB1 (human, UniProt Q8NHL6 24-461, biotin (NHS-pEG12-biotin) in the competition ELISA).

The term IC50 denotes the point on the concentration scale where inhibition reaches its midpoint. High values mean a need for much substance, low ones inhibition by little substance. By Kd is commonly meant the constant that tells how readily two partners part at equilibrium.

Chain of extracellular domain (ECD) of human LILRB1 (Q8NHL6 24-461): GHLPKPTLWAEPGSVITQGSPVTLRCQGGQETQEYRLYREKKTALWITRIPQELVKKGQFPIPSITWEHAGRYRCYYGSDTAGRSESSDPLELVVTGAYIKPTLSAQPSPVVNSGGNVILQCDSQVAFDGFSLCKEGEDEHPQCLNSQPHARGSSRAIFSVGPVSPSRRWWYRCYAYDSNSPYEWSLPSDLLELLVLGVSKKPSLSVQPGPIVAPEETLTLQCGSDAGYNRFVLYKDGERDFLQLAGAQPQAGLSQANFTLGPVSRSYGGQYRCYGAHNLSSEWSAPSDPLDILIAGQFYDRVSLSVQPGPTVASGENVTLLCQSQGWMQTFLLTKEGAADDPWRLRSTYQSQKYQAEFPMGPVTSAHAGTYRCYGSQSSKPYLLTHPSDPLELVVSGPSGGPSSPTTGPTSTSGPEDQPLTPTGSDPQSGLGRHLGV

B1: D1D2.v-IgG (LILRB1 D1D2.v-containing antibody on the MDB1 scaffold) (antibody, V domains shown)
VH: QITLKESGPTLVERTQTLTLTCTFSGFSLTTDGLGVGWIRQPPGKALEWLALIYYDDVRRYRPSLKSRLTITKDTSKNRVVLTVTDMDPVDAGTYFCVHASLFNLGSRNVYFRYWGQGTLVSVSS
VL: SYDLTQPPSVSVSPGQTARITCSGDSLARQFASWYQQKPGQSPVLLIYKNIERLSAIPERFSGSTSGTSVTLTISGVQAEDEADYFCQSADDSGSYSLFGTGTRVSVL
Molecule B1 registered an IC50 in experiment [1] of 20 nM. Further, binding in experiment [2] was put at a Kd of 6 nM.

B2: variable region of RIFIN#1 (PF3D7_1254800, 165-274 aa) (domain or fragment, P. falciparum, UniProt Q8I4N9 165-274, looked up)
chain: NYETINAFIAKTIEELEGIPGITKLFGAKISQFVTPAVFRKPMSLVETILSEKKKLCLCAANKNELLCRGMNPNVPETLPKKIEVAVNEVLSSVNDTWATATTPTTFFTN
Turning to B2, the Kd in experiment [3] was around 650 nM.

The record behind these values is article doi:10.1101/2024.08.08.607148 (bioRxiv, 2024).
